Measured values taken from paper PMC11074156.

These substances were tested against ATF6 (activating transcription factor 6), endogenous (UniProt P18850) (assay: co-immunoprecipitation (GFP trap beads), western blot band quantitation). Conditions: HEK293T/17 cells, 48 h post transfection; parent: est. 1.0; read off a plot.
Chain of ATF6 (activating transcription factor 6), endogenous (P18850 whole entry): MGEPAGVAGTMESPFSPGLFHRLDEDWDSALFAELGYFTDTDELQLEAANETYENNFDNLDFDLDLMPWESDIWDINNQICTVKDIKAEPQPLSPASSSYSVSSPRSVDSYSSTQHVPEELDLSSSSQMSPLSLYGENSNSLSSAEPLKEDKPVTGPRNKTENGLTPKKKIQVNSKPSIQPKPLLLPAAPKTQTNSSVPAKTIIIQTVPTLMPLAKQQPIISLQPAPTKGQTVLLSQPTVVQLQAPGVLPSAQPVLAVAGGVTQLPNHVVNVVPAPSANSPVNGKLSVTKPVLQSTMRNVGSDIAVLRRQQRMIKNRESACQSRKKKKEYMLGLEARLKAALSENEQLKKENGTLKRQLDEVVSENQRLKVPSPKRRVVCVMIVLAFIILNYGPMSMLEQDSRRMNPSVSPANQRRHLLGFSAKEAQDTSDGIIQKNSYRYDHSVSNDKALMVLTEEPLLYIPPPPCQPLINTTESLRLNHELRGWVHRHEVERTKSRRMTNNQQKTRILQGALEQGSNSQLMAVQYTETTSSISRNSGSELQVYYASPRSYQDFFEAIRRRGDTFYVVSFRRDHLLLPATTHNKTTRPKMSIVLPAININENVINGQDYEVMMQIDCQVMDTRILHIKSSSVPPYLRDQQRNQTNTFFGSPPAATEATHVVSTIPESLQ

Chain of EGFP-full length GRP78 (wild type), P11021 R492E (P11021 19-654 R492E): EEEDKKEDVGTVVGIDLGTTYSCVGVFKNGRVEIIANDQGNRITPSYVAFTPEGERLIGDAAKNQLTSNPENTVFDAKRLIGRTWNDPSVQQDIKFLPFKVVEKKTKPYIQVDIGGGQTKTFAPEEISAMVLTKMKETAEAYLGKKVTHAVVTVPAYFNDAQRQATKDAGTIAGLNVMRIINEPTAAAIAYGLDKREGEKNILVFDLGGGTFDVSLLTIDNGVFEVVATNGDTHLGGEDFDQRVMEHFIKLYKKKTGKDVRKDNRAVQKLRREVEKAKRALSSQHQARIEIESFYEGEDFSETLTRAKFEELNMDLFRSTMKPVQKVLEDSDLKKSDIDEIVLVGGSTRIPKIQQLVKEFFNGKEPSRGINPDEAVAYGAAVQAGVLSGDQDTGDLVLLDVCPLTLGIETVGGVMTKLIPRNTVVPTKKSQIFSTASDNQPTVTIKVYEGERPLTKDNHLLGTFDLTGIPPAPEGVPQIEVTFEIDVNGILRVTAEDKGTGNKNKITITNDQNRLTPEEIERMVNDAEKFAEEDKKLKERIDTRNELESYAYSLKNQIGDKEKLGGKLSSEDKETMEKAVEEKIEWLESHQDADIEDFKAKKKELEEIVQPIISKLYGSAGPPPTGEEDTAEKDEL
Chain of EGFP-full length GRP78 (wild type), P11021 R470E (P11021 19-654 R470E): as the sequence (P11021 19-654 R492E) above, with R452E, E474R counted along it
Chain of EGFP-full length GRP78 (wild type), P11021 K621A (P11021 19-654 K621A): as the sequence (P11021 19-654 R492E) above, with E474R, K603A counted along it
Chain of EGFP-full length GRP78 (wild type), P11021 V429Q (P11021 19-654 V429Q): as the sequence (P11021 19-654 R492E) above, with V411Q, E474R counted along it
Chain of EGFP-full length GRP78 (wild type), P11021 T518A (P11021 19-654 T518A): as the sequence (P11021 19-654 R492E) above, with E474R, T500A counted along it
Chain of EGFP-full length GRP78 (wild type), P11021 K585A (P11021 19-654 K585A): as the sequence (P11021 19-654 R492E) above, with E474R, K567A counted along it

| Substance | ratio to parent |
| --- | --- |
| EGFP-full length GRP78 (wild type), P11021 K585A | 0.82 |
| EGFP-full length GRP78 (wild type), P11021 K621A | 0.82 |
| EGFP-full length GRP78 (wild type), P11021 R470E | 0.95 |
| EGFP-full length GRP78 (wild type), P11021 R492E | 0.28 |
| EGFP-full length GRP78 (wild type), P11021 T518A | 0.4 |
| EGFP-full length GRP78 (wild type), P11021 V429Q | 0.98 |

What follows are substances tested against ZIKV E protein expressed from pcDNA3.1+_19CprME-Zika (with prM) in the same assay as above. Conditions: HEK293T/17 cells, 48 h post transfection; parent: est. 1.0; read off a plot.

| Substance | ratio to parent |
| --- | --- |
| EGFP-full length GRP78 (wild type) (from UniProt P11021) H477E | 1.3 |
| EGFP-full length GRP78 (wild type) (from UniProt P11021) K585A | 1 |
| EGFP-full length GRP78 (wild type) (from UniProt P11021) K621A | 0.72 |
| EGFP-full length GRP78 (wild type) (from UniProt P11021) R492E | 0.47 |
| EGFP-full length GRP78 (wild type) (from UniProt P11021) T518A | 0.42 |
| EGFP-full length GRP78 (wild type) (from UniProt P11021) V429Q | 1.1 |
